Data: patent US20230322935A1 (published 2023)

T1: Human CD93 on the cell surface (human CD93 expressing CHO cells; HUVEC, U937 and KG1a cells) (human, UniProt Q9NPY3 22-652)
T1 chain: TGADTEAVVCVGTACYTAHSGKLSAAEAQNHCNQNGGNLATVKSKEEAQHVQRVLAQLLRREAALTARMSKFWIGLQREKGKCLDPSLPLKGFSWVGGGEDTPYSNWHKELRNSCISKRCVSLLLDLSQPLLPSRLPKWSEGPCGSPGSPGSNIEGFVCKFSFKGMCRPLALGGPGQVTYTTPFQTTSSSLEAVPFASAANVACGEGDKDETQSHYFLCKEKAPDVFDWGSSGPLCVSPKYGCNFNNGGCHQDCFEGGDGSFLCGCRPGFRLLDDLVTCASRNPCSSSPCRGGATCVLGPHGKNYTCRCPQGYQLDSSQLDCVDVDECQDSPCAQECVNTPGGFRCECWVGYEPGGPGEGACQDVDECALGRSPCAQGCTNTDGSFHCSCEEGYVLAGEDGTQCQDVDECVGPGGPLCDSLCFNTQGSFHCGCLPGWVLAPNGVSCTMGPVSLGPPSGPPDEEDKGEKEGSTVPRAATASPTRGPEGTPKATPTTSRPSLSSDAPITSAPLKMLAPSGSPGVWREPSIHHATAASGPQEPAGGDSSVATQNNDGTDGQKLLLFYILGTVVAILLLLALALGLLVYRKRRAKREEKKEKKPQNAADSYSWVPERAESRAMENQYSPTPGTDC


Columns and labels:
[1] = molecular target: T1, Human CD93 on the cell surface (human …); assay: FACS blocking of MMRN2 binding; FIG. 45
[2] = molecular target: T1, Human CD93 on the cell surface (human …); assay: FACS blocking of hIGFBP7-His binding; HUVEC cells

IC50 [1] | IC50 [2] | Binder
225 nM |  | h16E4 (humanized 16E4, VH4+VL6) (antibody, V domains shown) VH: QVQLVQSGAEVKKPGASVKVSCKASGYTFTSYWMHWVRQAPGQGLEWMGEIDPSASYTYYNQKFKGRVTMTRDKSSSTVYMELSSLTSEDSAVYYCARSVYYGNKYFDVWGAGTTVTVSS VL: DIQMTQSPSTLSASVGDRVTITCKASQSVDYAGDSYMNWYQQKPGKAPKLLIYAASNLESGVPSRFSGSGSGTEFTLTISSLQPDDFATYYCQQTNEDPRTFGGGTKLEIK
 | 1 nM | h7F3 (humanized 7F3, VH3+VL3) (antibody, V domains shown) VH: QVQLVQSGAEVKKPGASVKVSCKASGYTFTDYEMHWVRQAPGQGLEWMGGIDPETGDTAYNQNFKGRVTMTTDTSTSTAYMELRSLTSDDTAVYYCTNYGNLYYYAMDYWGQGTSVTVSS VL: EIVLTQSPSSLSASVGDRVTITCRASSSVSSSYLHWYQQKPGKAPKLLIYSTSNLAFGVPSRFSGSGSGTSYTFTISSLQPEDIATYYCQQYSGYPLTFGSGTKLEIK
